The source of these data is EP3411068A2 (dated 2018).

The target in test [1] is T1, mouse VEGFR2-Fc (mouse, UniProt P35918 20-762).
T1 construct: also called mVEGFR2; recombinant mouse VEGFR2
The test can be described thus: blocking ELISA, mVEGFR2-Fc binding to coated mVEGF.

The target of test [2] is T2, human VEGFR2 expressed on KDR-PAE cells (human, UniProt P35968 20-1356).
T2 construct: whole, on cells; also called PAE-KDR; KDR-PAE (hVEGFR2)
The test can be described thus: flow cytometry on KDR-PAE cells.

The target of test [3] is T3, human VEGFR2-Fc (human, UniProt P35968 20-764).
T3 construct: also called hVEGFR2; recombinant human VEGFR2
The test can be described thus: dose response ELISA, antigen-Fc coated, HRP anti-human Fab. (In general: An ELISA detects its analyte on a solid surface through an enzyme-linked reagent.)

Test [4] has as its target T1, mouse VEGFR2-Fc. Described as above.
For test [5], the target named is T3, human VEGFR2-Fc. The test can be described thus: SPR (Biacore), hVEGFR-Fc immobilized on CM5, antibody injected, 1:1 Langmuir. (SPR reads the build-up and loss of mass on a sensor chip optically.)
The target in test [6] is T3, human VEGFR2-Fc. Nature of the test: blocking ELISA, hVEGFR2-Fc binding to coated hVEGF.
In test [7] the target is T4, mouse PDL1 expressed on B16-F10 cells (mouse, UniProt Q9EP73 19-290).
T4 construct: whole, on cells; also called B16-F10 (mPDLl); cell expressed mouse PDL1
The test can be described thus: flow cytometry on B16-F10 cells. (A flow cytometer gives signals particle by particle.)

The target in test [8] is T5, human PDL1-Fc (human, UniProt Q9NZQ7 19-238).
T5 construct: also called hPDL1; hPDLl
Nature of the test: SPR (Biacore), hPDL1-Fc immobilized on CM5, antibody injected, 1:1 Langmuir.

Test [9] addresses T6, mouse PDL1-Fc (mouse, UniProt Q9EP73 19-239, limits assumed).
T6 construct: also called mPDL1; mPDLl
The test can be described thus: blocking ELISA, biotin mPDL1-Fc binding to immobilized mPD1.

Test [10] concerns the target T5, human PDL1-Fc. Nature of the test: dose response ELISA, antigen-Fc coated, HRP anti-human Fab.
Test [11] has as its target T6, mouse PDL1-Fc. Described as above.
The target in test [12] is T5, human PDL1-Fc. Nature of the test: blocking ELISA, biotin hPDL1-Fc binding to immobilized hPD1.
Test [13] addresses T7, human PDL1 expressed on MDA-MB-231 cells (human, UniProt Q9NZQ7 19-290).
T7 construct: whole, on cells; also called cell expressed human PDL1
The test can be described thus: flow cytometry on MDA-MB-231 cells.

Test [14] deals with T3, human VEGFR2-Fc. Nature of the test: binding assay as in Example 2 (Figure 42).
Test [15] deals with T5, human PDL1-Fc. The test can be described thus: binding assay as in Example 2 (Figure 42).

T5 sequence (Q9NZQ7 19-238 limits assumed): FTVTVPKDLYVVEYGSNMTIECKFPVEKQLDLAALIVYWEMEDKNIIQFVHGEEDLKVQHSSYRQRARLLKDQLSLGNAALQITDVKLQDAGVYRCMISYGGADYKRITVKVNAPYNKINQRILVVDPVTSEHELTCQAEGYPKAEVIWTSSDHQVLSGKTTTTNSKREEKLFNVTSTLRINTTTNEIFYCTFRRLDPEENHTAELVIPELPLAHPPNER
T3 sequence (P35968 20-764 limits assumed): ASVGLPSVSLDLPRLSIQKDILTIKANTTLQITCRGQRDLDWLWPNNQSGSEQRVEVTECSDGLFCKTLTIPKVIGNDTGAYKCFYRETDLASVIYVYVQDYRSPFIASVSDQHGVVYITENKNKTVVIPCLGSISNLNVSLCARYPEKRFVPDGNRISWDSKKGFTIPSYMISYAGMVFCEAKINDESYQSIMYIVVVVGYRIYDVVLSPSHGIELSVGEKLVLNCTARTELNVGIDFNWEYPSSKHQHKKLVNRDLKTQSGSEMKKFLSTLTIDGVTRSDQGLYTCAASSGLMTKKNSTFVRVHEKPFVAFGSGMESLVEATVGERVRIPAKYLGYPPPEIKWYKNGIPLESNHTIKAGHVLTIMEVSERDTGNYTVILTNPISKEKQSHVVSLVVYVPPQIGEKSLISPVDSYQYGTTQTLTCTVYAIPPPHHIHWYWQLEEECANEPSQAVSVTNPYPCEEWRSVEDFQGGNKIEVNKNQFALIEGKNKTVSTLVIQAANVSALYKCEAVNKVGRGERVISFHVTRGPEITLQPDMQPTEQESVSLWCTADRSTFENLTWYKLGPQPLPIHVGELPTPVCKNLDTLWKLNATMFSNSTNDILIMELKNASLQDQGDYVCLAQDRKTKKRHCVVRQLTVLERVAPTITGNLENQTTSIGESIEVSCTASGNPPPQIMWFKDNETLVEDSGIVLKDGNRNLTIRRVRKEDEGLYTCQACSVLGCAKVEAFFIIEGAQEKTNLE
T1 sequence (P35918 20-762 limits assumed): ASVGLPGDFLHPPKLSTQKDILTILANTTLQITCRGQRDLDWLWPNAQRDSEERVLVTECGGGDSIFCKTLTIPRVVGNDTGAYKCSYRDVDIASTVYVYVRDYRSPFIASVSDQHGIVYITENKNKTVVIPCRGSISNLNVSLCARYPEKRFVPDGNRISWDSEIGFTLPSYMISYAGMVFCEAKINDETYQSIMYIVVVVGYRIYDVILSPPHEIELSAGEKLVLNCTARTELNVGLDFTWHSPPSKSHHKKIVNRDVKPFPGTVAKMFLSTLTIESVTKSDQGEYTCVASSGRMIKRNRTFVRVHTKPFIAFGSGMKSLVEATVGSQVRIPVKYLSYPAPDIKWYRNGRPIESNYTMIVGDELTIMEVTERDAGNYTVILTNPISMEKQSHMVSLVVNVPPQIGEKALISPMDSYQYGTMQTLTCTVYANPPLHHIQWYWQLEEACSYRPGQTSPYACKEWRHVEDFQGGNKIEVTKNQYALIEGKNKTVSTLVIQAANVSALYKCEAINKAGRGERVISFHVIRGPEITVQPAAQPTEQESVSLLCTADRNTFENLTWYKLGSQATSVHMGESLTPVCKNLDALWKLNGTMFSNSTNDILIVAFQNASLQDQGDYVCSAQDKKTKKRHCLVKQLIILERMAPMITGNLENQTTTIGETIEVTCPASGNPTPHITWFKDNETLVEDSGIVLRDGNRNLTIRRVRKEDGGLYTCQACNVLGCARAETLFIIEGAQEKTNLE
T2 sequence (P35968 20-1356): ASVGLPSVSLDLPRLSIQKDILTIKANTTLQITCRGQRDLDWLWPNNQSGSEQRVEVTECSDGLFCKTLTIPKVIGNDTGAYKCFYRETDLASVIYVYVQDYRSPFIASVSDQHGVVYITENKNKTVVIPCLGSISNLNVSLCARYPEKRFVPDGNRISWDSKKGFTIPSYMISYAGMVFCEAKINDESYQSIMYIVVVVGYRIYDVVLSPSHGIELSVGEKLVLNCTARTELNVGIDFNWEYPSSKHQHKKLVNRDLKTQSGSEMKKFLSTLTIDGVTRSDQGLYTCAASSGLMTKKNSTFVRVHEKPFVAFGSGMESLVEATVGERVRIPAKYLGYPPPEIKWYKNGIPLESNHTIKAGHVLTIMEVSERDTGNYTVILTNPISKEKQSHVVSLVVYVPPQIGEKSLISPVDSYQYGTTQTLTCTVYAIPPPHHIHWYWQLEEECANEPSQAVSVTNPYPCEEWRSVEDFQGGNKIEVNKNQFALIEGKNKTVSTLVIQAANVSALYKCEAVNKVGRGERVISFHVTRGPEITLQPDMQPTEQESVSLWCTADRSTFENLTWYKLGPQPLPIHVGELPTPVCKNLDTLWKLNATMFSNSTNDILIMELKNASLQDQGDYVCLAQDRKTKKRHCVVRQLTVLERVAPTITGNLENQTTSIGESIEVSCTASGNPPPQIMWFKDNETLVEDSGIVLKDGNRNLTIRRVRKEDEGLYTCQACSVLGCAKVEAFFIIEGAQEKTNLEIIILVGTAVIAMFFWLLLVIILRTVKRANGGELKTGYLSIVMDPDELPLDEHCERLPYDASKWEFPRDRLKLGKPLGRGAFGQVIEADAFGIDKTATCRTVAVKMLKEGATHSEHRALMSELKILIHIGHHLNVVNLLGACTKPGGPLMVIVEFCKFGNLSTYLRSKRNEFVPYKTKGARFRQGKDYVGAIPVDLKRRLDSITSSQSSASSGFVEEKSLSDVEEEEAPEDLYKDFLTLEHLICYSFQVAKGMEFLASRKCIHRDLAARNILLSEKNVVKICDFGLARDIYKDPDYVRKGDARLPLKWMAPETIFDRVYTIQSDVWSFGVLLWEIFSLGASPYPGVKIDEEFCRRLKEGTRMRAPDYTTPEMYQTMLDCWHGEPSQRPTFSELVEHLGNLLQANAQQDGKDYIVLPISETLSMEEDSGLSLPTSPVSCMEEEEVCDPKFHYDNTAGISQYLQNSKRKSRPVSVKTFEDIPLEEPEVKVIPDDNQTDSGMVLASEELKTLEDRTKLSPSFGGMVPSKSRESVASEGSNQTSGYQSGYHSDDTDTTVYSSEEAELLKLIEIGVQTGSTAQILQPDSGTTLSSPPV
T6 sequence (Q9EP73 19-239 limits assumed): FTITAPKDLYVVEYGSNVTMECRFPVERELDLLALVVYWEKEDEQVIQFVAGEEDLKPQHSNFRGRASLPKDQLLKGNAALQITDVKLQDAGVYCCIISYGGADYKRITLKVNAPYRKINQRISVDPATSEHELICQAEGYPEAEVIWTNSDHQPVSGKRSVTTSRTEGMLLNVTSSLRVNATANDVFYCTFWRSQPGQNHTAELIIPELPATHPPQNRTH
T7 sequence (Q9NZQ7 19-290): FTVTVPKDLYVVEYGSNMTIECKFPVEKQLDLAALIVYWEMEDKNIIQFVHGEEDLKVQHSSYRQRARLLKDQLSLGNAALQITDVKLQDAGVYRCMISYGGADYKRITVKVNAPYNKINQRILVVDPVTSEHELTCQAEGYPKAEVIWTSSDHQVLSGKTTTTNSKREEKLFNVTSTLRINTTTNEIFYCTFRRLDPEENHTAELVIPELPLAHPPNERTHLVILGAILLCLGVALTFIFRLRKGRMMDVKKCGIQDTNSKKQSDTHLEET

B1: B1C4A7 (antibody, human IgG1, kappa, V domains shown)
VH: EVQLLESGGGLVQPGGSLRLSCAASGFTFSWYVMGWVRQAPGKGLEWVSSIYPQGGATSYADSVKGRFTISRDNSKNTLYLQMNSLRAEDTAVYYCARGNYFDYWGQGTLVTVSS
VL: DIQMTQSPGTLSLSPGEGATLSCRASQSVSSNYFGWYQQKPGQAPRLLIYGASSRATGIPDRFSGSGSGTDFTLTISRLEPEDSAVYYCQQFDSLPLTFGGGTKVEIKR
notes: Parental mono-specific anti-VEGFR2 IgG1; also called anti-VEGFR2 antibody B1C4A7
As for B1, the IC50 (as a rule, the midpoint of a concentration-inhibition curve) in the test with mouse VEGFR2-Fc [1] came to 0.973 nM; in the test with human VEGFR2-Fc [6], 1.72 nM. Moreover, the EC50 – broadly, the concentration at which the effect is half-maximal – was 0.522 nM in test [2], 0.107 nM with human VEGFR2-Fc [3] and 0.466 nM in the test with mouse VEGFR2-Fc [4]. Also, in the test with human VEGFR2-Fc [5], the affinity, expressed as Kd, was 0.052 nM.

B2: BsAb (A7-A8)-LALA (bispecific antibody, human IgG1, kappa)
heavy: not shown
light: DIQMTQSPGTLSLSPGEGATLSCRASQSVSSNYFGWYQQKPGQAPRLLIYGASSRATGIPDRFSGSGSGTDFTLTISRLEPEDSAVYYCQQFDSLPLTFGGGTKVEIKRTVAAPSVFIFPPSDEQLKSGTASVVCLLNNFYPREAKVQWKVDNALQSGNSQESVTEQDSKDSTYSLSSTLTLSKADYEKHKVYACEVTHQGLSSPVTKSFNRGEC
notes: LALA version: leucines 234 and 235 of the IgG1 CH2 mutated to alanine; also called bi-specific antibody A7-A8
As to B2, the half-maximal inhibitory concentration (IC50) in the test with mouse VEGFR2-Fc [1] was determined as 0.801 nM; with mouse PDL1-Fc [9], 5.59 nM; with human PDL1-Fc [12], 2.51 nM; with human VEGFR2-Fc [6], 1.29 nM. Also, the EC50 was found to be 0.533 nM in test [2]; 0.122 nM in test [7]; 0.128 nM with human VEGFR2-Fc [3]; 0.079 nM with human PDL1-Fc [10]; 0.137 nM with mouse PDL1-Fc [11]; 0.598 nM with mouse VEGFR2-Fc [4]. This molecule displayed an EC50 in [13] of 0.223 nM. The Kd – broadly, the concentration at which binding is half-saturated – with human PDL1-Fc [8] was about 0.0012 nM; with human VEGFR2-Fc [5] it was about 0.047 nM.

B3: BsAb (D7A8-B1A1) (bispecific antibody, human IgG1, lambda, L234A L235A)
heavy: not shown
light: QSALTQPASVSGSPGQSITISCTGTSSDVGAYNYVSWYQQHPGKAPKLMIYDVSNRPSGVSNRFSGSKSGNTASLTISGLQAEDEADYYCSSYTSSSTRVFGTGTKVTVLGQPKAAPSVTLFPPSSEELQANKATLVCLISDFYPGAVTVAWKADSSPVKAGVETTKPSKQSNNKYAASSYLSLTPEQWKSHRSYSCQVTHEGSTVEKTVAPTECS
Consider B3, for which the binding result with human VEGFR2-Fc [14] and with human PDL1-Fc [15] was “binds” in each case.

B4: BsAb (D7A8-B1A1)_30 (bispecific antibody, human IgG1, lambda, L234A L235A)
heavy: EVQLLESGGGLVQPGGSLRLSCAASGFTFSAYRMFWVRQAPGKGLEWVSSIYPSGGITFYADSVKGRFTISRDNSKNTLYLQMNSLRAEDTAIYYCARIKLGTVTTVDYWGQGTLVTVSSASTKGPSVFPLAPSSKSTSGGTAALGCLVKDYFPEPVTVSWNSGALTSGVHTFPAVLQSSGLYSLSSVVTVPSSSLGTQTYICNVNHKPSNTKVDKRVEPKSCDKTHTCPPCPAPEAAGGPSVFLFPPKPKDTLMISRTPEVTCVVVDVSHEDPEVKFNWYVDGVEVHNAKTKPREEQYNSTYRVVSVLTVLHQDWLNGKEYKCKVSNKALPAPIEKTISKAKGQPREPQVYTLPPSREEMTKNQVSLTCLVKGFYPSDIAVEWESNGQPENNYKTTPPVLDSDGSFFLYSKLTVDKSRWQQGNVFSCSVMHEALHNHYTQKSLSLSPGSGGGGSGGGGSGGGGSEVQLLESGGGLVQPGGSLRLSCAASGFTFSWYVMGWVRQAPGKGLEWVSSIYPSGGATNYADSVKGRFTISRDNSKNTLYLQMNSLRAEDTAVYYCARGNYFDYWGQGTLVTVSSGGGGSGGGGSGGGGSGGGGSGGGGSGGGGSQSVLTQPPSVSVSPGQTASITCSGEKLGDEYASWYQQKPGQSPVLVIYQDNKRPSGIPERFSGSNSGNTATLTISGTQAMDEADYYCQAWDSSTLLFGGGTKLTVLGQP
light: QSALTQPASVSGSPGQSITISCTGTSSDVGAYNYVSWYQQHPGKAPKLMIYDVSNRPSGVSNRFSGSKSGNTASLTISGLQAEDEADYYCSSYTSSSTRVFGTGTKVTVLGQPKAAPSVTLFPPSSEELQANKATLVCLISDFYPGAVTVAWKADSSPVKAGVETTKPSKQSNNKYAASSYLSLTPEQWKSHRSYSCQVTHEGSTVEKTVAPTECS
notes: Variant of BsAb (D7A8-B1A1), apparently with the 30GS linker
As for B4, the binding result in the test with human VEGFR2-Fc [14] and with human PDL1-Fc [15] was “binds” throughout.

B5: BsAb (D7A8-B1A1)_30cc (bispecific antibody, human IgG1, lambda, L234A L235A)
heavy: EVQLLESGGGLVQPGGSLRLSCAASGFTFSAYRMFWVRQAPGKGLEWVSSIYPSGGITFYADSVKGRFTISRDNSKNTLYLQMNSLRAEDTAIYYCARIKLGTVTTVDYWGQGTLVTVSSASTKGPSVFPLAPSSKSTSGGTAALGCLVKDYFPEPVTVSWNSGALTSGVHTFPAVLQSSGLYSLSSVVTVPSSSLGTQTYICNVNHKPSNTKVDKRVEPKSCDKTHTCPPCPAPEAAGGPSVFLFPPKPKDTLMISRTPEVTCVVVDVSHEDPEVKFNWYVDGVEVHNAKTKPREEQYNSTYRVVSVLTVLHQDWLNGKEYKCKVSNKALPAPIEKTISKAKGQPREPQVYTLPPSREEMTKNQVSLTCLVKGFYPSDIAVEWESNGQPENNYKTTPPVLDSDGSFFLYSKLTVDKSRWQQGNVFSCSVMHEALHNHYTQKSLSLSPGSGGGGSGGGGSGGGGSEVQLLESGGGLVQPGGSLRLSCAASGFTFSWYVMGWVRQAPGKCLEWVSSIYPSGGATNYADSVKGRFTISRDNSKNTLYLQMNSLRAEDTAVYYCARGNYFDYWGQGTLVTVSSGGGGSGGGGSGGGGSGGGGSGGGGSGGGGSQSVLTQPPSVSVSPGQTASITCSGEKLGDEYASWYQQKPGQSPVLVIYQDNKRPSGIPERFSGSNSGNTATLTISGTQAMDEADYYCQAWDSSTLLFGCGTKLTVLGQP
light: QSALTQPASVSGSPGQSITISCTGTSSDVGAYNYVSWYQQHPGKAPKLMIYDVSNRPSGVSNRFSGSKSGNTASLTISGLQAEDEADYYCSSYTSSSTRVFGTGTKVTVLGQPKAAPSVTLFPPSSEELQANKATLVCLISDFYPGAVTVAWKADSSPVKAGVETTKPSKQSNNKYAASSYLSLTPEQWKSHRSYSCQVTHEGSTVEKTVAPTECS
notes: Variant of BsAb (D7A8-B1A1), apparently with the 30GS linker and an added disulfide bond in the scFv; also called BsAb (D7A8-BlAl)_30cc
As for B5, the binding result with human VEGFR2-Fc [14] and with human PDL1-Fc [15] was “binds” throughout.

B6: BsAb (A1-A8)-LALA (bispecific antibody, human IgG1, lambda)
heavy: not shown
light: QSVLTQPPSVSVSPGQTASITCSGEKLGDEYASWYQQKPGQSPVLVIYQDNKRPSGIPERFSGSNSGNTATLTISGTQAMDEADYYCQAWDSSTLLFGGGTKLTVLGQPKAAPSVTLFPPSSEELQANKATLVCLISDFYPGAVTVAWKADSSPVKAGVETTKPSKQSNNKYAASSYLSLTPEQWKSHRSYSCQVTHEGSTVEKTVAPTECS
notes: LALA version: leucines 234 and 235 of the IgG1 CH2 mutated to alanine; also called bi-specific antibody A1-A8; A18
With B6, the EC50 in [2] worked out at 0.779 nM; in test [7], 0.113 nM; with human VEGFR2-Fc [3], 0.128 nM; in the test with human PDL1-Fc [10], 0.088 nM; with mouse PDL1-Fc [11] it was 0.16 nM; in test [13], 0.402 nM. Further, the Kd is about 0.0032 nM with human PDL1-Fc [8] and about 0.2 nM with human VEGFR2-Fc [5]. For the same molecule, the figures for the IC50 with mouse PDL1-Fc [9], with human PDL1-Fc [12] and in the test with human VEGFR2-Fc [6] were 3.2 nM, 2.51 nM and 1.19 nM, respectively.

B7: BsAb (A11-B1A1) (bispecific antibody, human IgG1, kappa, L234A L235A)
heavy: not shown
light: DIQMTQSPSSLSASVGDRVTITCRASQTVSKYFNWFQQKPGEAPKLLIYATSTLQSGVPSRFSGSGYGTEFTLTISSLQPEDFATYYCQQSYTTPWTFGQGTKVEIKRTVAAPSVFIFPPSDEQLKSGTASVVCLLNNFYPREAKVQWKVDNALQSGNSQESVTEQDSKDSTYSLSSTLTLSKADYEKHKVYACEVTHQGLSSPVTKSFNRGEC
With B7, the binding result with human VEGFR2-Fc [14] and in the test with human PDL1-Fc [15] was “binds” in each case.

B8: BsAb (A11-B1A1)_30 (bispecific antibody, human IgG1, kappa, L234A L235A)
heavy: not shown
light: DIQMTQSPSSLSASVGDRVTITCRASQTVSKYFNWFQQKPGEAPKLLIYATSTLQSGVPSRFSGSGYGTEFTLTISSLQPEDFATYYCQQSYTTPWTFGQGTKVEIKRTVAAPSVFIFPPSDEQLKSGTASVVCLLNNFYPREAKVQWKVDNALQSGNSQESVTEQDSKDSTYSLSSTLTLSKADYEKHKVYACEVTHQGLSSPVTKSFNRGEC
For B8, the binding result with human VEGFR2-Fc [14] and with human PDL1-Fc [15] was “binds” each time.

B9: BsAb (A11-B1A1)_30cc (bispecific antibody, human IgG1, kappa, L234A L235A)
heavy: not shown
light: DIQMTQSPSSLSASVGDRVTITCRASQTVSKYFNWFQQKPGEAPKLLIYATSTLQSGVPSRFSGSGYGTEFTLTISSLQPEDFATYYCQQSYTTPWTFGQGTKVEIKRTVAAPSVFIFPPSDEQLKSGTASVVCLLNNFYPREAKVQWKVDNALQSGNSQESVTEQDSKDSTYSLSSTLTLSKADYEKHKVYACEVTHQGLSSPVTKSFNRGEC
notes: Variant of BsAb (A11-B1A1), apparently with the 30GS linker and an added disulfide bond in the scFv; also called BsAb (Al l-BlAl)_30cc
In the case of B9, the binding result in the test with human VEGFR2-Fc [14] and with human PDL1-Fc [15] was “binds” in each case.
